± gives the standard deviation of the averaged measurements.
B1: library; a variant is named by its letters at N, in order (parent)
chain: GCUGUCACCGAGAAACUGUGAAGUAUAUCUUAAACCUGGGCACUUAAAAGAUAUAUGGAGUUAGUAGUGCAACCUGCUCGGUCUGAUGAGUCCNNNNNNGGACGAAACAGC

Tests used:
cyclic di-GMP [1] = variants of: B1; experiment: FACS-Seq fitted mean relative fluorescence mCherry/BFP without ligand (log10 relative fluorescence); HEK293T; ligand: cyclic di-GMP (c-di-GMP-II aptamer); higher = higher reporter protein expression; details: ligand present: no
In short: (§1)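 Fluorescence is reported as a normalized fitted mean of sorted-bin read counts. Lentivirally transduced HEK293T libraries (mCherry ribozyme-switch reporter, EF1α-BFP marker) were enriched, treated with or without ligand for 48 h, and sorted into 6 mCherry/BFP bins for MiSeq sequencing of PCR-amplified genomic DNA. The normal fit was on log10(mCherry/BFP), scaled to five spiked-in control ribozymes.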

cyclic di-GMP [2] = variants of: B1; experiment: normalized RNA/DNA level without ligand (relative to sTRSVctl = 100) (log10 (% of sTRSVctl)); HEK293T; ligand: cyclic di-GMP (c-di-GMP-II aptamer); higher = less ribozyme self-cleavage, higher mRNA level; details: reporter: mCherry (pCS4076), ligand present: no
Protocol: (§2)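 Hammerhead (sTRSV) ribozyme switch libraries with a ligand aptamer grafted on stem I and a randomized N4-6 loop II, cloned into the 3' UTR of mCherry and transiently transfected into HEK293T cells; RNA-Seq 72 h post transfection with ligand added 1 h before transfection; RNA read count / plasmid DNA read count normalized to the non-cleaving sTRSVctl (x100), log10; sequences with >100 DNA reads. FACS-Seq: lentiviral library sorted into 6 bins after 48 h ligand, log-normal fit mean of mCherry/BFP scaled to controls. Printed sequences are partial switch sequences.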

cyclic di-GMP [3] = variants of: B1; experiment: FACS-Seq fitted mean relative fluorescence mCherry/BFP with ligand (log10 relative fluorescence); HEK293T; ligand: cyclic di-GMP (c-di-GMP-II aptamer); ligand concentration (+) FACS-Seq: 1 mM; higher = higher reporter protein expression; details: ligand present: yes
In short: as §1

cyclic di-GMP [4] = variants of: B1; experiment: normalized RNA/DNA level with ligand (relative to sTRSVctl = 100) (log10 (% of sTRSVctl)); HEK293T; ligand: cyclic di-GMP (c-di-GMP-II aptamer); ligand concentration (+) RNA-Seq: 1 mM; higher = less ribozyme self-cleavage, higher mRNA level; details: reporter: mCherry (pCS4076), ligand present: yes
Protocol: as §2

Variant	FACS-Seq fitted mean (log10) (cyclic di-GMP [1])	normalized RNA/DNA level without ligand (log10) (cyclic di-GMP [2])	FACS-Seq fitted mean (log10) (cyclic di-GMP [3])	normalized RNA/DNA level with ligand (log10) (cyclic di-GMP [4])
CGGCAA	-0.818 ± 0.011	1.28 ± 0.077	-0.675 ± 0.04	1.47 ± 0.097
ACAAAU	-0.483 ± 0.17	1.37 ± 0.13	-0.291 ± 0.042	1.57 ± 0.08
CUUAGC	-0.863 ± 0.058	1.79 ± 0.00046	-0.484 ± 0.043	1.88 ± 0.11
GUUACU	-0.232 ± 0.064	1.75 ± 0.027	0.0991 ± 0.015	1.82 ± 0.13
AAGGUU	-0.341 ± 0.089	1.59 ± 0.022	-0.152 ± 0.091	1.8 ± 0.1
AGACUA	-0.122 ± 0.029	1.55 ± 0.038	0.261 ± 0.022	1.74 ± 0.14
GUUUGC	-0.138 ± 0.079	1.66 ± 0.043	0.164 ± 0.012	1.79 ± 0.15
UUUGUU	-0.123 ± 0.13	1.73 ± 0.063	0.125 ± 0.064	1.86 ± 0.13
GUCCAA	0.102 ± 0.033	1.57 ± 0.052	0.317 ± 0.11	1.74 ± 0.12
AGCAGA	-0.373 ± 0.045	1.564 ± 0.0029	-0.1 ± 0.017	1.69 ± 0.19
AGGAAG	-0.88 ± 0.017	1.38 ± 0.13	-0.6586 ± 0.0033	1.52 ± 0.13
UCAAUU	-0.69 ± 0.034	1.585 ± 0.0066	-0.175 ± 0.22	1.77 ± 0.13
UAAUAG	-0.126 ± 0.087	1.667 ± 0.0048	-0.0799 ± 0.024	1.83 ± 0.099
GCACUA	-0.172 ± 0.017	1.48 ± 0.023	0.225 ± 0.12	1.75 ± 0.062
AAUUGG	0.0192 ± 0.091	1.59 ± 0.068	0.141 ± 0.0084	1.74 ± 0.13
GCGCAU	-0.0572 ± 0.14	1.66 ± 0.058	0.0686 ± 0.025	1.8 ± 0.11
ACGUUU	-0.522 ± 0.028	1.32 ± 0.16	-0.336 ± 0.035	1.52 ± 0.078

— the supplement of paper PMC6757056
